Results from article PMC3477848 (Biochemistry, 2012).
Where two headings read alike, the source gives them in different places.

Assays:
Test in all cases: fluorescence anisotropy
[1] = biological target: T1, Dpo1 exo- (SsoDpo1, B-family DNA polymerase) (Sulfolobus solfataricus, UniProt P26811 1-882, D231A;D318A)
T1 sequence: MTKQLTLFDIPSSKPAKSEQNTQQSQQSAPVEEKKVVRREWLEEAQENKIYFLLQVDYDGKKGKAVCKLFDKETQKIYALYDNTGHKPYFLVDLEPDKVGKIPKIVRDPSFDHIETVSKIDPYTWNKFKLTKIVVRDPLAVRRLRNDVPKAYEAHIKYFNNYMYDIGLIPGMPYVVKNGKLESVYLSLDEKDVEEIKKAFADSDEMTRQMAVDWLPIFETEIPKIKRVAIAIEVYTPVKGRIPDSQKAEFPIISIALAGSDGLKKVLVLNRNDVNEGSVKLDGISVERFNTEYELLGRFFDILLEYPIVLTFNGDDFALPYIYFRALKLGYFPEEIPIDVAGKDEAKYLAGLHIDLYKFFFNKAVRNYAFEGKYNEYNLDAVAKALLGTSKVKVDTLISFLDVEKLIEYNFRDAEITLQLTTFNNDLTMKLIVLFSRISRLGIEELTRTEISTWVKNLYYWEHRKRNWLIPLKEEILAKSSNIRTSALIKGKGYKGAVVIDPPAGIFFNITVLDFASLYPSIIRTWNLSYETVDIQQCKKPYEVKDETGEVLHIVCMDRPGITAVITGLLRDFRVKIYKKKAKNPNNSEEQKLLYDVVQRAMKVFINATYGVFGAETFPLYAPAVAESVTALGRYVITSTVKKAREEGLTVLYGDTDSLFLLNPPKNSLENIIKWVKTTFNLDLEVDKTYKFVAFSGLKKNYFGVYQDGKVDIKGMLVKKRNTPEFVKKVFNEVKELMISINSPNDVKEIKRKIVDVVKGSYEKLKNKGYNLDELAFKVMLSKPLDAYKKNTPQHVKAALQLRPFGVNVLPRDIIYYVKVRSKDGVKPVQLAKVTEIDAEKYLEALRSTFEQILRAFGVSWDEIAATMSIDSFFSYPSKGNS

[2] = biological target: T2, Dpo4 (SsoDpo4, Y-family DNA polymerase) (Sulfolobus solfataricus, UniProt Q97W02 1-352)
T2 sequence: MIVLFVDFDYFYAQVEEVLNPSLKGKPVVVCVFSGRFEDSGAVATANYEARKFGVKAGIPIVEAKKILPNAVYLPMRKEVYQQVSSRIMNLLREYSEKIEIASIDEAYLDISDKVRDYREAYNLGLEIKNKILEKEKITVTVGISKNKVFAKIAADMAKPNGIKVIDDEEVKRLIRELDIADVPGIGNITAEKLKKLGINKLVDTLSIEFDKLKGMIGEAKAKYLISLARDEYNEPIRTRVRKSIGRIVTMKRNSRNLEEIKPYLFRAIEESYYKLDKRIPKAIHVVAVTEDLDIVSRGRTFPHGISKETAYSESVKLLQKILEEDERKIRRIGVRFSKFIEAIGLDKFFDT

[3] = biological target: T1, Dpo1 exo- (SsoDpo1, B-family DNA …); remark: listed apart in the source
[4] = biological target: T2, Dpo4 (SsoDpo4, Y-family DNA polymerase); remark: listed apart in the source
[5] = biological target: T1, Dpo1 exo- (SsoDpo1, B-family DNA …); remark: listed apart in the source
[6] = biological target: T2, Dpo4 (SsoDpo4, Y-family DNA polymerase); remark: listed apart in the source
[7] = biological target: T2, Dpo4 (SsoDpo4, Y-family DNA polymerase); remark: listed apart in the source
[8] = biological target: T1, Dpo1 exo- (SsoDpo1, B-family DNA …); remark: listed apart in the source

B1: 37-nt hairpin primer-template, 5'-Cy3 (structured_DNA)
DNA: TTTTTTTTTTCCCGGGCCGGCGTTTCGCCGGCCCGGG
Kd [1]: 94 ± 1 nM | Kd [2]: 444 ± 115 nM | Kd [3]: 208 ± 22 nM | Kd [4]: 155 ± 65 nM | Kd [5]: 105 ± 3 nM | Kd [6]: 140 ± 66 nM | Kd [7]: 435 ± 116 nM | Kd [8]: 322 ± 23 nM
